Data from publication PMC9341007 (Structure (London, England : 1993), 2022).

Molecular target: equine ACE2 peptidase domain (horse (Equus caballus), UniProt A0A9L0TPT7 19-615)
Assay: SPR

B1: hCoV-NL63 spike receptor-binding domain (domain or fragment)
chain: QHTDINFTATASFGGSCYVCKPHQVNISLNGNTSVCVRTSHFSIRYIYNRVKSGSPGDSSWHIYLKSGTCPFSFSKLNNFQKFKTICFSTVEVPGSCNFPLEATWHYTSYTIVGALYVTWSEGNSITGVPYPVSGI
Kd: 106 nM
